{"source": "patent US20220062371A1", "about": "“LIGAND-DRUG-CONJUGATES AS SUBSTRATES FOR SELECTIVE CLEAVAGE BY THE EXOPEPTIDASE ACTIVITY OF CATHEPSIN B” (DEBIOPHARM RESEARCH & MANUFACTURING S.A., priority 2017, published 2022)", "biological_target": "Recombinant human Cathepsin B (human) (UniProt P07858)", "test": "cell-based or functional assay", "data": [{"substance": "ADC1, AF-Arg-Lys(PEG4-Mal-trastuzumab)-Phe-OH (antibody)", "values": [{"measurement": "T 1/2 of release of AF-Arg by Cat B", "value": "< 5", "unit": "min"}]}]}
